The text below walks through data of patent US7888025B2, “Intestinal folate transporter method” (Albert Einstein College of Medicine of Yeshiva University, priority 2007, dated 2011).

What is called Ki is the dissociation constant of the complex between target and ligand, obtained from inhibition or displacement.

Data set [1] has as its target rat jejunum brush border membranes. Particulars: read-out: Ki, competitive inhibition of folic acid uptake; cited from earlier work.
Data set [2] has as its system PCFT. Description: [3H](6S)5-methylTHF uptake in HeLa cells transiently transfected with mutated PCFT cDNA. Particulars: pH 5.5, 37° C., 2 min; for [3H](6S)5-methylTHF uptake (transport function): 0.5 μM, transiently transfected HeLa cells; for residual transport activity as compared to the wild-type transporter: 0.5 μM [3H](6S)5-methylTHF, mock background subtracted. It counts as cell-based, human. The source says: Analysis of G21 in a family with hereditary folate malabsorption. Members of a family with hereditary folate malabsorption were studied according to a protocol and Informed Consent in the subjects' native language approved by the Albert Einstein College of Medicine IRB (CCI#2006-279). Whole blood was used for isolation of genomic DNA by a Genomic DNA Purification Kit (Gentra Systems, Minneapolis, Minn.) and to generate EBV-transformed human B-lymphoblastoid cell lines in the Einstein Human Genetics Cell Culture Core. Each G21 exon with flanking regions was amplified using Taq DNA polymerase, Q-solution (Qiagen, Valencia, Calif.) and primers listed in Table 4. G21 or RFC cDNA were amplified from lymphoblastoid cells by RT-PCR. PCR products were gel-purified and sequenced in an ABI 3730 DNA Analyzer (Applied Biosystems). The mutated region was verified by sequencing both DNA strands. An expression vector of the mutated G21 in which exon 3 was skipped (GenBank accession number: BC010691) was purchased from Open Biosystems and, along with pcDNA3.1(+)G21 (wild type), was used for an assay of transport function. Western blot analysis on whole cell lysate and cellular localization was performed as described above.
Site-directed mutagenesis. PCFT cDNA was cloned in pCDNA 3.1 (+) and mutations in the coding region were introduced by site-directed mutagenesis using PfuTurbo® DNA polymerase (Stratagene, La Jolla, Calif.) as described previously (Zhao et al., 2000). The entire PCFT coding region in the plasmid was sequenced to verify the presence of the mutation.
Transient transfections and assessment of 5-methylTHF transport. Plasmid concentrations were determined by UV absorption and verified by agarose gel analysis. HeLa cells were seeded and transiently transfected in 20 ml glass scintillation vials (Research Products International Corp., Mt. Prospect, Ill.) and after two days, [^3H]5-methylTHF uptake was assessed (Qiu et al., 2006). EBV-transformed B-lymphoblastoid cells, generated from blood (P6 and P7), were washed twice with, and resuspended in, unbuffered saline (160 mM NaCl, 5 mM KCl, 2 mM MgCl2, 5 mM glucose). Uptake was initiated by injection of the cell suspension into MES-buffered saline (pH 5.5) containing 0.5 μM [^3H]5-methylTHF. Surface binding was assessed by measuring [^3H]5-methylTHF associated with cells at 0° C. and the bound component was subtracted from total uptake.

Substrate in data set [3]: Nc1nc2ncc(CNc3ccc(C(=O)N[C@@H](CCC(=O)O)C(=O)O)cc3)nc2c(=O)[nH]1
Description: Uptake of tritiated folates in G21 cRNA-injected Xenopus oocytes. In kind it is cell-based, human. How it is done: Uptake studies in Xenopus oocytes. Defolliculated Xenopus laevis oocytes were prepared as described (Jansen and Akabas, 2006) and injected with 50 nl of water or G21 cRNA (30 ng). Radiotracer uptake was determined 3 or 4 days later. Seven to 10 oocytes were incubated in 500 μl of Modified Barth's Solution (MBS, in mM, 88 NaCl, 2.4 NaHCO3, 2.5 Na pyruvate, 1 KCl, 0.82 MgSO4, 0.41 CaCl2, 0.3 Ca(NO3)2, 15 MES or HEPES) and uptake of tritiated folate substrates assessed at room temperature. Uptake was halted by the addition of ice-cold MBS (pH 7.5). Oocytes were washed 10 times thereafter, and solubilized with 10% SDS for measurement of radioactivity. To collapse the pH gradient across the oocyte membrane, seven to 10 oocytes were incubated in MBS (pH 5.5) containing 0, 10, 20, 40, 60 μM FCCP for 20 min, and uptake of transport substrates assessed at pH 5.5.

Substrate in data set [4]: CN(Cc1cnc2nc(N)nc(N)c2n1)c1ccc(C(=O)N[C@@H](CCC(=O)O)C(=O)O)cc1
Description: cells, lysate or membranes.

Substrate in data set [5]: Nc1nc2ncc(CNc3ccc(C(=O)N[C@@H](CCC(=O)O)C(=O)O)cc3)nc2c(=O)[nH]1
Description: Two-electrode voltage-clamp electrophysiology in G21 cRNA-injected Xenopus oocytes. It counts as cell-based, human. The following applies: 17.0 °C. How it is done: Electrophysiological analyses in Xenopus oocytes. Defolliculated oocytes were injected with 50 nl of water (control) or G21 cRNA (50 ng), and kept at 17° C. in horse serum medium (in mM, 82.5 NaCl, 2.5 KCl, 1 MgCl2, 2.3 CaCl2, 5 HEPES, 5% horse serum, pH 7.5). Electrophysiological recordings were conducted 3-7 days after cRNA injection in buffer (in mM, 90 NaCl, 1 KCl, 1 MgCl2, 1.8 CaCl2, 5 TRIS, 5 MES) as described previously (Jansen and Akabas, 2006). Oocyte holding potential was −80 mV for Km determination. For current-voltage (I-V) relationships, from a −60 mV holding potential step changes in membrane potential were applied for 2 s in 10 mV increments between −100 and 30 mV in the absence and presence of substrate.
Background: In two-electrode clamp one electrode senses voltage and the other passes current.

The mark [6] stands for this setting: other: extracellular pH 5.5, pH 5.5.
The mark [7] stands for this setting: other: extracellular pH 6.0, pH 6.0.
Where [8] appears, read: other: extracellular pH 6.5, pH 6.5.
Setting [9] is: other: extracellular pH 7.0, pH 7.0.
The mark [10] stands for this setting: other: extracellular pH 7.5, pH 7.5.

Substitutions are numbered along the chain they refer to. Numbers in names are those of the source.

Take `CN1c2c(nc(N)[nH]c2=O)NCC1CNc1ccc(C(=O)N[C@@H](CCC(=O)O)C(=O)O)cc1` (mixture of isomers) [racemic 5-MTHF]: the Ki in data set [1] was 1.4 µM.

B1: mutated G21 carrier: exon 3-deleted G21 (PCFT) protein, in-frame deletion of 28 amino acids (protein, listed as Homo sapiens)
chain: MEGSASPPEKPRARPAAAVLCRGPVEPLVFLANFALVLQGPLTTQYLWHRFSADLGYNGTRQRGGCSNRSADPTMQEVETLTSHWTLYMNVGGFLVGLFSSTLLGAWSDSVGRRPLLVLASLGLLLQALVSVFVVQLQLHVGYFVLGRILCALLGDFGGLLAASFASVADVSSSRSRTFRMALLEASIGVAGMLASLLGGHWLRAQGYANPFWLALALLIAMTLYAAFCFGETLKEPKSTRLFTFRHHRSIVQLYVAPAPEKSRKHLALYSLAIFVVITVHFGAQDILTLYELSTPLCWDSKLIGYGSAAQHLPYLTSLLALKLLQYCLADAWVAEIGLAFNILGMVVFAFATITPLMFTGALFSAVACVNSLAMLTASGIFNSLYPATLNFMKGFPFLLGAGLLLIPAVLIGMLEKADPHLEFQQFPQSP
As for B1, the “[3H](6S)5-methylTHF uptake (transport function)” value (“[3H](6S)5-methylTHF uptake” for short) in data set [2] is reported as “lacked transport function”.

B2: G21 (PCFT) (Homo sapiens) (protein)
chain: MEGSASPPEKPRARPAAAVLCRGPVEPLVFLANFALVLQGPLTTQYLWHRFSADLGYNGTRQRGGCSNRSADPTMQEVETLTSHWTLYMNVGGFLVGLFSSTLLGAWSDSVGRRPLLVLASLGLLLQALVSVFVVQLQLHVGYFVLGRILCALLGDFGGLLAASFASVADVSSSRSRTFRMALLEASIGVAGMLASLLGGHWLRAQGYANPFWLALALLIAMTLYAAFCFGETLKEPKSTRLFTFRHHRSIVQLYVAPAPEKSRKHLALYSLAIFVVITVHFGAQDILTLYELSTPLCWDSKLIGYGSAAQHLPYLTSLLALKLLQYCLADAWVAEIGLAFNILGMVVFAFATITPLMFTGYGLLFLSLVITPVIRAKLSKLVRETEQGALFSAVACVNSLAMLTASGIFNSLYPATLNFMKGFPFLLGAGLLLIPAVLIGMLEKADPHLEFQQFPQSP
notes: expressed in transfected cells; host or cells: Xenopus laevis oocytes injected with capped G21 cRNA (pSPT64, SP6)
In the case of B2, the Km in data set [3] (setting [6]) was 1.3 ± 0.1 µM; in data set [3] (setting [7]), 1.5 ± 0.1 (n = 2) μM; in data set [3] (setting [8]), 2.7 ± 0.2 (n = 3) μM; in data set [3] (setting [9]) it was 6.0 ± 2.6 (n = 2) μM; in data set [3] (setting [10]), 56.2 ± 5.6 µM; in data set [4] (setting [6]), 3.4 ± 0.8 (n = 3) μM. In addition, the Km in data set [4] (setting [7]) was 3.4 ± 0.5 (n = 3) μM; in data set [4] (setting [8]), 7.3 ± 0.6 (n = 3) μM; in data set [4] (setting [9]) it was 16.3 ± 2.8 (n = 4) μM; in data set [4] (setting [10]), 130.7 ± 11.6 (n = 3) μM; in data set [4] (other: pH 5.5, holding potential −80 mV, pH 5.5, 17.0 °C) it was 2.01 ± 0.16 µM; in data set [4] (other: pH 6.5, holding potential −80 mV, pH 6.5, 17.0 °C) it was 8.07 ± 0.60 µM. In addition, the Km in data set [5] (other: pH 5.5, holding potential −80 mV, pH 5.5) amounted to 0.83 ± 0.05 µM; in data set [5] (other: pH 6.5, holding potential −80 mV, pH 6.5), 2.99 ± 0.09 µM.

B3: S318R: human PCFT mutant protein (protein, UniProt Q96NT5 1-459, looked up, variant S318R)
Proton-coupled folate …: B2 chain with S318R
B3: the “[3H](6S)5-methylTHF uptake” value in data set [2] is “essentially no uptake”.

B4: G147R: human PCFT mutant protein (protein, UniProt Q96NT5 1-459, looked up, variant G147R)
Proton-coupled folate …: B2 chain with G147R
In the case of B4, the “residual transport activity as compared to the wild-type transporter” value in data set [2] is given as 7.0%.

B5: R113S: human PCFT mutant protein (protein, UniProt Q96NT5 1-459, looked up, variant R113S)
Proton-coupled folate …: B2 chain with R113S
Regarding B5, in data set [2], the “[3H](6S)5-methylTHF uptake” value is reported as “essentially no uptake”.

B6: P425R: human PCFT mutant protein (protein, UniProt Q96NT5 1-459, looked up, variant P425R)
Proton-coupled folate …: B2 chain with P425R
In the case of B6, the “residual transport activity as compared to the wild-type transporter” value in data set [2] amounted to 3.4%.
